Measured values reported in patent US20170275357A1 (Bristol-Myers Squibb, published 2017).
Positions count from the first letter of the chain named.

B1: 339-35 (antibody, human IgG1, V domains shown)
VH: QVQLVQSGAEVKKPGASVKVSCKASGYTFNEYTMHWVKQSHGQRLEWMGGINPNSGGVSYNQNFKGRVTITRDTSASTAYMELSSLRSEDTAVYYCARGGDGYYTNYFDIDYWGQGTTVTVSS
VL: EIVLTQSPDFQSVTPKEKVTITCSASSSVNYMHWYQQKPDQSPKLLIKDTSKLASGVPSRFSGSGSGTDFTLTINSLEAEDAATYYCQQWNSHPLTFGQGTKLEIK
B2: 339-104 (antibody, human IgG1, V domains shown)
VH: B1 VH with R67K, V68A, I70L, R72V, A76S, Y94F
VL: DIQMTQSPSSLSASVGDRVTITCSASSSVNYMHWYQQKPGKVPKLLIYDTSKLASGVPSRFSGSGSGTDFTLTISSLQPEDVATYYCQQWNSHPLTFGQGTKLEIK
B3: 339-105 (antibody, human IgG1, V domains shown)
VH: B1 VH with N30T, K38R, S40A, H41P, A76S, Y94F
VL: B2 VL
B4: 339-71 (antibody, human IgG1, V domains shown)
VH: B1 VH with N30T, K38R, S40A, H41P, R67K, V68A, I70L, R72V
VL: B1 VL
B5: 339-125 (antibody, human IgG1, V domains shown)
VH: B1 VH with R67K, V68A, I70L, R72V
VL: B2 VL
B6: 339-128 (antibody, human IgG1, V domains shown)
VH: B1 VH with N30T, K38R, S40A, H41P, R67K, V68A, I70L, R72V
VL: B2 VL
B7: 339-127 (antibody, human IgG1, V domains shown)
VH: B1 VH
VL: B2 VL
B8: 339-39 (antibody, human IgG1, V domains shown)
VH: B1 VH with R67K, V68A, I70L, R72V, A76S, Y94F
VL: B1 VL
B9: 339-38 (antibody, human IgG1, V domains shown)
VH: B1 VH with R67K, V68A, I70L, R72V
VL: B1 VL
B10: 339-37 (antibody, human IgG1, V domains shown)
VH: B1 VH with N30T, K38R, S40A, H41P, A76S, Y94F
VL: B1 VL
B11: 339-33 (antibody, human IgG1, V domains shown)
VH: B1 VH with N30T, K38R, S40A, H41P
VL: B1 VL
B12: 339-126 (antibody, human IgG1, V domains shown)
VH: B1 VH with N30T, K38R, S40A, H41P
VL: B2 VL
B13: human IL-23 (IL-23p19/IL-12B heterodimer) (ligand)
chain 1: RAVPGGSSPAWTQCQQLSQKLCTLAWSAHPLVGHMDLREEGDEETTNDVPHIQCGDGCDPQGLRDNSQFCLQRIHQGLIFYEKLLGSDIFTGEPSLLPDSPVGQLHASLLGLSQLLQPEGHHWETQQIPSLSPSQPWQRLLLRFKILRSLQAFVAVAARVFAHGAATLSP
chain 2: IWELKKDVYVVELDWYPDAPGEMVVLTCDTPEEDGITWTLDQSSEVLGSGKTLTIQVKEFGDAGQYTCHKGGEVLSHSLLLLHKKEDGIWSTDILKDQKEPKNKTFLRCEAKNYSGRFTCWWLTTISTDLTFSVKSSRGSSDPQGVTCGAATLSAERVRGDNKEYEYSVECQEDSACPAAEESLPIEVMVDAVHKLKYENYTSSFFIRDIIKPDPPKNLQLKPLKNSRQVEVSWEYPDTWSTPHSYFSLTFCVQVQGKSKREKKDRVFTDKTSATVICRKNASISVRAQDRYYSSSWSEWASVPCS

biological target: T1, human IL-17A homodimer (human, UniProt Q16552 24-155); experiment: cell-based or functional assay

First: B1
Second: B2
The “IC50, NIH/3T3/KZ170 NF-kB luciferase reporter” value of the first is higher: greater than 600 nM for the first, 1.5 nM for the second.

Compared with B3, B4 is lower in “IC50, NIH/3T3/KZ170 NF-kB luciferase reporter” value: greater than 600 nM for the first, 16 nM for the second.

Going from B5 to B6, the “IC50, NIH/3T3/KZ170 NF-kB luciferase reporter” value rises from 1.5 nM to 5.1 nM (3.4-fold).

First: B7
Second: B8
The “IC50, NIH/3T3/KZ170 NF-kB luciferase reporter” value of the first is 25-fold higher: 190 nM for the first, 7.6 nM for the second.

First: B9
Second: B10
The “IC50, NIH/3T3/KZ170 NF-kB luciferase reporter” value of the first is lower: 8.2 nM for the first, greater than 600 nM for the second.

biological target: T2, human IL-17A/F heterodimer (human, UniProt Q16552 24-155; Q96PD4 31-163); experiment: cell-based or functional assay

Going from B1 to B2, the “IC50, NIH/3T3/KZ170 NF-kB luciferase reporter” value falls from 2.4 nM to 0.83 nM (2.9-fold).

First: B3
Second: B4
The “IC50, NIH/3T3/KZ170 NF-kB luciferase reporter” value of the first is 62-fold higher: 23 nM for the first, 0.37 nM for the second.

Compared with B5, B6 is 2-fold lower in “IC50, NIH/3T3/KZ170 NF-kB luciferase reporter” value: 0.81 nM for the first, 0.41 nM for the second.

Going from B7 to B8, the “IC50, NIH/3T3/KZ170 NF-kB luciferase reporter” value falls from 3.4 nM to 0.23 nM (15-fold).

First: B9
Second: B10
The “IC50, NIH/3T3/KZ170 NF-kB luciferase reporter” value of the first is 74-fold lower: 0.27 nM for the first, 20 nM for the second.

biological target: T3, human IL-17F homodimer (human, UniProt Q96PD4 31-163); experiment: cell-based or functional assay
T3 sequence: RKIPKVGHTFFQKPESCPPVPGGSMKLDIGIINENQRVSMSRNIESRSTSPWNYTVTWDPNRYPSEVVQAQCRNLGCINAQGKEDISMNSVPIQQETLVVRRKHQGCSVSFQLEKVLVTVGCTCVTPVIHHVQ

B1 and B2 are within 1.5-fold of each other in “IC50, NIH/3T3/KZ170 NF-kB luciferase reporter” value: 0.64 nM for the first, 0.83 nM for the second.

First: B3
Second: B4
The “IC50, NIH/3T3/KZ170 NF-kB luciferase reporter” value of the first is 13-fold higher: 2.6 nM for the first, 0.2 nM for the second.

First: B5
Second: B6
The “IC50, NIH/3T3/KZ170 NF-kB luciferase reporter” value of the first is 3.3-fold higher: 0.83 nM for the first, 0.25 nM for the second.

First: B7
Second: B8
The “IC50, NIH/3T3/KZ170 NF-kB luciferase reporter” value of the first is 2-fold higher: 0.5 nM for the first, 0.25 nM for the second.

Going from B9 to B10, the “IC50, NIH/3T3/KZ170 NF-kB luciferase reporter” value rises from 0.27 nM to 3.5 nM (13-fold).

biological target: T1, human IL-17A homodimer; experiment: cell-based or functional assay; remark: another data set of the same source

B11 and B12 cannot be ordered by “IC50, NIH/3T3/KZ170 NF-kB luciferase reporter” value: greater than 600 nM for the first, greater than 600 nM for the second.

biological target: T2, human IL-17A/F heterodimer; experiment: cell-based or functional assay; remark: another data set of the same source

Going from B11 to B12, the “IC50, NIH/3T3/KZ170 NF-kB luciferase reporter” value rises from 9.7 nM to 24 nM (2.5-fold).

biological target: T3, human IL-17F homodimer; experiment: cell-based or functional assay; remark: another data set of the same source

B11 and B12 are within 1.5-fold of each other in “IC50, NIH/3T3/KZ170 NF-kB luciferase reporter” value: 1.7 nM for the first, 1.6 nM for the second.

biological target: human IL-23Rα/human IL-12Rβ1 on BaF3 transfectants (human, UniProt Q5VWK5 24-629; P42701 24-662); experiment: cell-based or functional assay
Sequence (Q5VWK5 24-629, chain 1 of 2, other chains not shown): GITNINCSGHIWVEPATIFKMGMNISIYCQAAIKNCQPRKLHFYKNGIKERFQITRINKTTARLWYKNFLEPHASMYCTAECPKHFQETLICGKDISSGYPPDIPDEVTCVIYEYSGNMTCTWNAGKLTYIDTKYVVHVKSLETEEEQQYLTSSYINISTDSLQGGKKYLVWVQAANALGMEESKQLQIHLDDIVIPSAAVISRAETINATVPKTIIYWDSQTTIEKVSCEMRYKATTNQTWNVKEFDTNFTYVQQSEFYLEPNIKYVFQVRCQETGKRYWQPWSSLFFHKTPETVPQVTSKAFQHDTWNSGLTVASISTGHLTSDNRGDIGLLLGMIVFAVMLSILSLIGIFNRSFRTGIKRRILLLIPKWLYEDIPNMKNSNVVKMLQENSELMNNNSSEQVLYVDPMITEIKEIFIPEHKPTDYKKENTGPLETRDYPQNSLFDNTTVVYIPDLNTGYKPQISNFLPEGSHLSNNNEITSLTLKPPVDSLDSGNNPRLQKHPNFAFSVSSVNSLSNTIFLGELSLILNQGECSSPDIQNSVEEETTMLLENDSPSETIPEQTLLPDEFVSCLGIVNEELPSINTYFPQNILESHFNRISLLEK

In the case of B13, the “EC50, STAT3 phosphorylation in Baf3/huIL-23Ra/huIL-12Rb1 transfectants” value is reported as 0.02 nM.

biological target: T2, human IL-17A/F heterodimer; experiment: SPR Biacore T100, captured antibody, bivalent analyte model
Protocol: (§1) Binding kinetics and affinity studies were performed on a BIACORE® T100 system (GE Healthcare, Piscataway, N.J.). Methods for the BIACORE® T100 were programmed using BIACORE® T100 Control Software, v 2.0. For these experiments, the humanized anti-human IL-17A/F antibodies were captured onto a CM4 sensor chip via either goat anti-human IgG Fc-gamma antibody (Jackson ImmunoResearch, West Grove, Pa.) or goat anti-mouse IgG Fc-gamma antibody (Jackson ImmunoResearch). Binding experiments with the IL-17 molecules were performed at 25° C. in a buffer of 10 mM HEPES, 150 mM NaCl, 3 mM EDTA, 0.05% Surfactant P20 (GE Healthcare), 1 mg/mL bovine serum albumin, pH 7.4.
(§2) The capture antibody, goat anti-human IgG Fc-gamma, was diluted to concentration of 20 μg/mL in 10 mM sodium acetate pH 5.0, and then covalently immobilized to all four flow cells of a CM4 sensor chip using amine coupling chemistry (EDC:NHS). […] A capture antibody density of approximately 5000 RU was obtained. The humanized anti-human IL-17A/F antibodies were captured onto flow cell 2, 3, or 4 of the CM4 chip at a density ranging from 60-150 RU. Capture of the test antibodies to the immobilized surface was performed at a flow rate of 10 μL/min. The BIACORE® instrument measures the mass of protein bound to the sensor chip surface, and thus, capture of the test antibody was verified for each cycle. […] The serial dilutions were injected over the surface and allowed to specifically bind to the test antibody captured on the sensor chip. Duplicate injections of each antigen concentration were performed with an association time of 7 minutes and dissociation time of 15 minutes. Kinetic binding studies were performed with a flow rate of 50 μL/min. In between cycles, the flow cell was washed with 20 mM hydrochloric acid to regenerate the surface. This wash step removed both the captured test antibody and any bound antigen from the immobilized antibody surface. The test antibody was subsequently captured again in the next cycle.
(§3) Data was compiled using the BIACORE® T100 Evaluation software (version 2.0).

B5 and B9 are within 1.5-fold of each other in Kd: 0.3 nM for the first, 0.4 nM for the second.

B5 and B9 are within 1.5-fold of each other in koff: 0.0006 s⁻¹ for the first, 0.0004 s⁻¹ for the second.

Going from B5 to B9, the kon falls from 2e+06 M⁻¹ s⁻¹ to 1e+06 M⁻¹ s⁻¹ (2-fold).

biological target: T1, human IL-17A homodimer; experiment: as above
Protocol: as §1, §2, §3

B5 and B9 are the same in Kd: 1 nM for the first, 1 nM for the second.

Compared with B5, B9 is 1.7-fold higher in koff: 0.003 s⁻¹ for the first, 0.005 s⁻¹ for the second.

Compared with B5, B9 is 2-fold higher in kon: 2e+06 M⁻¹ s⁻¹ for the first, 4e+06 M⁻¹ s⁻¹ for the second.

biological target: T3, human IL-17F homodimer; experiment: as above
Protocol: as §1, §2, §3

First: B5
Second: B9
The Kd of the first is 3-fold lower: 0.1 nM for the first, 0.3 nM for the second.

Compared with B5, B9 is 3-fold higher in koff: 0.0002 s⁻¹ for the first, 0.0006 s⁻¹ for the second.

B5 and B9 are the same in kon: 2e+06 M⁻¹ s⁻¹ for the first, 2e+06 M⁻¹ s⁻¹ for the second.
